Measurements from paper PMC6698862.

Experiments:
[1] = molecular target: human P-cadherin, cell surface-expressed on NCI-H1650 adenocarcinoma cells (Homo sapiens (Human).) (UniProt P22223)
[2] = molecular target: cynomolgus monkey P-cadherin extracellular domain (ECD) (Macaca fascicularis); experiment: KinExA; recombinant cynomolgus monkey P-cadherin; PBS pH 7.4 with MgCl2, CaCl2 and 1 mg/mL BSA; PMMA beads; 4 °C for 2 h
[3] = molecular target: human P-cadherin expressed on the surface of CHO cells (Homo sapiens) (UniProt P22223); experiment: KinExA; human P-cadherin expressed on the surface of CHO cells; PBS pH 7.4 with MgCl2, CaCl2 and 1 mg/mL BSA; 4 °C for 2 h
[4] = molecular target: human P-cadherin-Fc (recombinant human P-cadherin ECD protein) (Homo sapiens (Human).) (UniProt P22223); experiment: ELISA; cadherin-Fc, P-cadherin His or CD3 epsilon-delta protein coated at 1 or 2 µg/mL; sample in 3% milk/PBS + Ca2+ and Mg2+, 1 h at room temperature
[5] = molecular target: soluble human CD3 epsilon-delta heterodimer (Homo sapiens (Human).) (UniProt P07766); experiment: as above
[6] = molecular target: human P-cadherin, cell surface-expressed on NCI-H1650 adenocarcinoma cells (Homo sapiens (Human).) (UniProt P22223); experiment: ELISA; cell binding ELISA on a confluent monolayer of NCI-H1650 cells; DART in 3% milk/PBS + Ca2+ and Mg2+, 1 h at room temperature; HRP-labelled secondary antibody
[7] = molecular target: cynomolgus monkey P-cadherin extracellular domain (ECD) (Macaca fascicularis); experiment: SPR; Biacore 3000 and T-200; P-cadherin or human CD3 protein immobilised on CM5 by amine coupling (~75–300 RU); DART injected in two-fold series 100 to 6.25 nM; TBS-P+ (10 mM Tris pH 7.4, 150 mM NaCl, 2 mM CaCl2, 0.1 mg/mL BSA, 0.05% P20); global 1:1 Langmuir fit
[8] = molecular target: human P-cadherin-Fc (recombinant human P-cadherin ECD protein) (Homo sapiens (Human).) (UniProt P22223); experiment: as above
[9] = molecular target: soluble human CD3 epsilon-delta heterodimer (Homo sapiens (Human).) (UniProt P07766); experiment: as above

UniProt P07766, sequence (P07766 23-126, stated change not applied, chain 1 of 2): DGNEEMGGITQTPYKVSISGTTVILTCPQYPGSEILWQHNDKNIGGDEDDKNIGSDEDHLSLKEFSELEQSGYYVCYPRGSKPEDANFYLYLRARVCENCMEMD
UniProt P07766, sequence (P04234 22-105, stated change not applied, chain 2 of 2, further chain): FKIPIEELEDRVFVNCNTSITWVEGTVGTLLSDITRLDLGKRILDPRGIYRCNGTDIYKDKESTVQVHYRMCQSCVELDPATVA

What does the source list for “PF-06671008 (anti-P-cadherin LP-DART #153) (bispecific antibody)”?
redirected killing of DU145 cells by human PBMCs (LDH release, 24 h, E:T 30:1), EC50 [1]: 0.0031 nM; redirected killing of HCT-116 cells by human PBMCs (LDH release, 24 h, E:T 30:1), EC50 [1]: 0.123 nM; Kd [2]: 0.352 nM; Kd [3]: 0.176 nM; EC50 [4]: 0.92 nM; EC50 [5]: 4.37 nM; EC50 [6]: 0.593 nM; Kd [7]: 0.521 nM; koff [7]: 0.000205 s⁻¹; kon [7]: 437000 M⁻¹ s⁻¹; Kd [8]: > 1 nM; Kd [9]: 11.5 nM
